Tested on: midbrain dopaminergic (TH+) neurons
Experiment: MPP+ intoxication model in midbrain cell cultures, survival of DA (TH+) neurons
Format: cell-based, Wistar rat
Description: For this purpose, spontaneously occurring DA cell death was prevented by a treatment combining depolarizing concentrations of K^+ (30 mM) and MK801 (5 μM), a glutamate receptor antagonist used to prevent unwanted excitotoxic insult. The cultures were then exposed to 3 μM MPP between 5 and 7 days in vitro (DIV) to achieve a loss of approximately 50% of DA neurons.
Animals were treated in accordance with the Guide for the Care and Use of Laboratory Animals (National Research Council, 1996), European Directive 86/609, and the guidelines of the local institutional animal care and use committee. Cultures were prepared from the ventral mesencephalon of gestational age 15.5 Wistar rat embryos (Janvier Breeding Center, Le Genest St Isle, France). Dissociated cells in suspension obtained by mechanical trituration of midbrain tissue pieces were seeded at a density of 1.2-1.5×10^5 cells/cm^2 onto tissue culture supports precoated with 1 mg/mL polyethylenimine diluted in borate buffer pH 8.3 as described (Michel et al., 1997. J Neurochem. 69(4):1499-507). The cultures were then maintained in N5 medium supplemented with 5 mM glucose, 5% horse serum, and 0.5% fetal calf serum, except for the first 3 DIV, when the concentration of fetal calf serum was 2.5% to favor initial maturation of the cultures (Guerreiro et al., 2008. Mol Pharmacol. 74(4):980-9). They were fed daily by replacing 70% of the medium. Routinely, mesencephalic cultures were established on Nunc 24-well culture plates (Thermofischer Scientific, Rochester, N.Y.). Note that these cultures contain tyrosine hydroxylase (TH)^+ neurons that were exclusively dopaminergic (Traver et al., 2006. Mol Pharmacol. 70(1):30-40). TH^+ neurons represented approximately 1-2% of the total number of neuronal cells present in these cultures. The evaluation of the survival of DA neurons was performed by counting cells immunopositive for TH as described (Toulorge et al., 2011. Faseb J. 25(8):2563-73).
Treatments with MPP were performed in cultures where the spontaneous death process was prevented by long-term exposure to depolarizing concentrations of K^+ (30 mM), in the presence of the glutamate receptor antagonist MK801 (5 μM) to prevent unwanted excitotoxic insults as described previously (Douhou et al., 2001. J Neurochem. 78(1): 163-74). Treatments with MPP and potential neuroprotective molecules were carried out between 5 and 7 DIV.
The cultures were fixed for 12 min using 4% formaldehyde in Dulbecco's phosphate-buffered saline (PBS), then washed twice with PBS before an incubation step at 4° C. for 24 h with the following antibodies. A monoclonal anti-TH antibody diluted 1/5000 (ImmunoStar, Inc., Hudson, Wis.) was used to assess the survival of DA neurons. Antibody was diluted in PBS containing 0.2% Triton X-100. Detection of the primary antibodies was performed with an Alexa Fluor-488 conjugate of an anti-mouse IgG antibody.

B1: Clone B08: anti-human CD38 antibody, HCVR SEQ ID NO: 33 and LCVR SEQ ID NO: 39 (antibody, V domains shown)
VH: EVQLVESGGSLVKPGGSLRLSCAASGFTFSNYYMNWVRQAPGKGLEWISSISGSSRSIYYADFVKGRFTISRDNAKNSLYLQMNSLRAEDTAVYYCVRSSDDYYYDYGMDVWGRGTLVTVSS
VL: QSVLTQPASVSGSPGQSITISCAGTSSDVGGSYSVSWYQQHPGKAPKLMIYDDSNRPSGVSNRFSGSKSGNTASLTISGLQAEDEADYYCSSYTDYSTRVFGGGTKL
modifications: HCVR B08; LCVR B08
neuroprotective effect against MPP+-induced DA cell death, compared with reference clone HB7 (3 μM MPP+ between 5 and 7 DIV, each clone and HB7 0.5 μg/mL): stronger neuroprotective effect
neuroprotective effect in the presence of the lysosomal exocytosis inhibitor vacuolin-1 (3 μM MPP+, test substance 1 μg/mL, vacuolin-1 10 μM): antagonized

Reference: patent publication US20220089765A1, “CD31 COMPETITORS AND USES THEREOF” (ENCEFA, priority 2019, published 2022)
